Test results: patent US20250002593A1 (INMAGENE PTE, published 2025)
Residue numbers refer to the chain shown, from its start. In names and notes the source's numbering stands. Blank lines part the entries; values can stand above or below the binder they belong to.

What was measured:
[1] = target: T1, Recombinant hIL-36R protein (Acrobio, Cat #IL2-H52H6) (human, UniProt Q9HB29 20-335); assay: BLI (Gator), antibody on Protein A sensor, hIL-36R analyte
T1 construct: Bought soluble protein; also called recombinant human IL-36R protein
T1 sequence: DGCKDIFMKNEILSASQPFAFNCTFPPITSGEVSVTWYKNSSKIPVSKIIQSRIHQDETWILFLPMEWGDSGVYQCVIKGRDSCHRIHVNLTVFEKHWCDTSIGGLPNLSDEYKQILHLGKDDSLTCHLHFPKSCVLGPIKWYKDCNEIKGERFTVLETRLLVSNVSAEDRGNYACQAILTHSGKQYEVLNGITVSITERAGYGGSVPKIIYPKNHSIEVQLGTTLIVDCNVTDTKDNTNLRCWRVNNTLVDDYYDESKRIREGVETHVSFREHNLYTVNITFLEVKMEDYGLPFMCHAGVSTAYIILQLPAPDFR

[2] = target: T2, membrane hIL-36R (human, UniProt Q9HB29 20-575); assay: cell-based or functional assay
T2 sequence: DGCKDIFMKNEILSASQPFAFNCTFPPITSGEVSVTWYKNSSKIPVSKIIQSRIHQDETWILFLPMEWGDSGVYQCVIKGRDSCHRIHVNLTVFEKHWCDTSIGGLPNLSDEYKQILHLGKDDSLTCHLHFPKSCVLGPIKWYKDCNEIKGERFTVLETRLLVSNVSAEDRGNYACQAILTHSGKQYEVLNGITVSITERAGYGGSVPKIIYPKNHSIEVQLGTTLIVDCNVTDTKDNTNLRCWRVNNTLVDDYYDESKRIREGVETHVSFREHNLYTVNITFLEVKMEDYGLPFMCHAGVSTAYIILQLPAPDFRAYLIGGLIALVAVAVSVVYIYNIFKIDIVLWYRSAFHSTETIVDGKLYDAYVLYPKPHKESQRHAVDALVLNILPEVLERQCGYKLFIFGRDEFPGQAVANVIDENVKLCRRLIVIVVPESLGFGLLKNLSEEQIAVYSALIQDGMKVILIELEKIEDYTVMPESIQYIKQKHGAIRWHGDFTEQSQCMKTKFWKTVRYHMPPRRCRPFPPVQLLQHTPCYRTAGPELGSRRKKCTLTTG

[3] = target: T1, Recombinant hIL-36R protein (Acrobio, …); assay: BLI (Gator), antibody on Protein A sensor, hIL-36R analyte; column head prints koff(1/Ms)
[4] = target: T1, Recombinant hIL-36R protein (Acrobio, …); assay: BLI (Gator), antibody on Protein A sensor, hIL-36R analyte; column head prints kon(1/s)
[5] = target: T2, membrane hIL-36R; assay: cell-based or functional assay; remark: listed apart in the source
[6] = target: T2, membrane hIL-36R; assay: cell-based or functional assay; remark: listed apart in the source
[7] = target: T3, Recombinant hIL1R1 protein (human, UniProt P14778 18-332, limits assumed); assay: ELISA on coated recombinant hIL1R1 protein, detection with HRP anti-hIgG
T3 sequence (looked up): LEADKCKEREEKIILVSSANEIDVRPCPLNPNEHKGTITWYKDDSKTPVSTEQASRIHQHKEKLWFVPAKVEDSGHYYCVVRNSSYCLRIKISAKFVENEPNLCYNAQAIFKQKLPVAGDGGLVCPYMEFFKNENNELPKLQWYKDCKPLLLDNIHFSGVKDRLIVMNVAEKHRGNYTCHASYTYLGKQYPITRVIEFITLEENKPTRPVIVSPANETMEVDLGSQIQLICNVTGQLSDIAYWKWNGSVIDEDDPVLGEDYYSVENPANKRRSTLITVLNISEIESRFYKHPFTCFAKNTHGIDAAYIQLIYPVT

[8] = target: T2, membrane hIL-36R; assay: cell-based or functional assay; remark: listed apart in the source
[9] = target: T2, membrane hIL-36R; assay: flow cytometry on HEK293 cells transfected with pcDNA3.1-hIL36R, FITC anti-hIgG, MFI (median); unit taken from the x axis
[10] = target: T2, membrane hIL-36R; assay: cell-based or functional assay; remark: listed apart in the source
[11] = target: T4, recombinant hIL-36R-his (human, UniProt Q9HB29 20-337); assay: ELISA on coated recombinant hIL36R protein (1 µg/ml), detection with HRP anti-hIgG; unit taken from the x axis Ab(µg/mL)
T4 construct: Residues 1-337 (extracellular domain) are stated for the IL-36R-his used as immunogen; The range includes the signal peptide; no cleavage site is stated; also called recombinant hIL36R protein; recombinant human IL-36R-his protein; not shown: His tag
T4 sequence: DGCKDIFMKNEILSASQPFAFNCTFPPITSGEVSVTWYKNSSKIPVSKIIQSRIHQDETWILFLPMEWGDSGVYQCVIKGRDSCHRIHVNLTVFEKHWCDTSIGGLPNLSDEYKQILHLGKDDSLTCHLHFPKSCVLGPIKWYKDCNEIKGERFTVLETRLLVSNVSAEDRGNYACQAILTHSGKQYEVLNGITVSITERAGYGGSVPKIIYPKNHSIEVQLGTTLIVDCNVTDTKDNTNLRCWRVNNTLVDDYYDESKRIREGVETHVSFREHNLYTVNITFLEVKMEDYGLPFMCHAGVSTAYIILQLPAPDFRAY

[12] = target: T2, membrane hIL-36R; assay: cell-based or functional assay; remark: listed apart in the source
[13] = target: T1, Recombinant hIL-36R protein (Acrobio, …); assay: SPR (Biacore T200, 25 C), antibody captured by Fc, hIL-36R analyte
[14] = target: T2, membrane hIL-36R; assay: cell-based or functional assay; remark: listed apart in the source
[15] = target: T2, membrane hIL-36R; assay: cell-based or functional assay; remark: listed apart in the source
[16] = target: T5, recombinant hFcRn-his/B2M heterodimer protein (Acrobio, Cat #FCM-H82W4) (human, UniProt P55899 24-297; P61769 21-119); assay: BLI (Gator) at pH 6.0, hFcRn-his/B2M on anti-his sensor, antibody analyte
T5 construct: Bought heterodimer

[17] = target: T5, recombinant hFcRn-his/B2M heterodimer …; assay: as above; remark: listed apart in the source

B2: 5F7 (antibody, V domains shown)
VH: EVKLVESGGGLVQPGGSLSLSCAASGFAFTDYYMNWVRQPPGKALEWLALIRNKAAGYTIYYSASVKGRFTISRDNSQSILYLQMTALRPEDSATYYCVRDMTIYDGYYVDYALDYWGQGTSVTVSS
VL: DIQMNQSPSSLSASLGDTITITCRASQNINIWLSWYQQKPGNIPKLFIYKASNLHTGVPSRFSGSGSGTDFTLTISSLQPEDIATYYCQQSQSYPLTFGAGTKLELK
notes: Mouse variable regions; also called chimeric antibody 5F7; 5F7 original molecular
Kd [1]: 14.6 nM
IC50, IL-36α induced IL-36R signaling (IL36R reporter assay, luciferase) [2]: 0.448 nM
koff [3]: 0.000861 s⁻¹
IC50, IL-36R reporter assay: inhibition of ligand induced luminescence in Jurkat-IL36R-IL1Racp-NFkB-luc cells (column printed '5F7-mus', taken as the '5F7 original molecular' of paragraph 330) [5]: 0.226 µg/mL
kon [4]: 59100 M⁻¹ s⁻¹

B5: 5F7-2a8-YTE (antibody, human IgG4 S228P, kappa)
heavy: EVQLVESGGGLVKPGGSLRLSCAASGFAFGDYYMNWVRQAPGKGLEWVALIRNKAAGYTIYYSAPVKGRFTISRDDSKSTLYLQMNSLKTEDTAVYYCVRDMTIYDGYYVDYALDYWGQGTLVTVSSASTKGPSVFPLAPCSRSTSESTAALGCLVKDYFPEPVTVSWNSGALTSGVHTFPAVLQSSGLYSLSSVVTVPSSSLGTKTYTCNVDHKPSNTKVDKRVESKYGPPCPPCPAPEFLGGPSVFLFPPKPKDTLYITREPEVTCVVVDVSQEDPEVQFNWYVDGVEVHNAKTKPREEQFNSTYRVVSVLTVLHQDWLNGKEYKCKVSNKGLPSSIEKTISKAKGQPREPQVYTLPPSQEEMTKNQVSLTCLVKGFYPSDIAVEWESNGQPENNYKTTPPVLDSDGSFFLYSRLTVDKSRWQEGNVFSCSVMHEALHNHYTQKSLSLSLGK
light: DIVMTQSPSSVSASVGDRVTITCRASRNINIWLSWYQQKPGKAPKLFIYKASNLHTGVPSRFSGSGSGTDFTLTISSLQPEDFATYYCLQSQSYPLTFGQGTKLEIKRTVAAPSVFIFPPSDEQLKSGTASVVCLLNNFYPREAKVQWKVDNALQSGNSQESVTEQDSKDSTYSLSSTLTLSKADYEKHKVYACEVTHQGLSSPVTKSFNRGEC
notes: 5F7-2a8 with M252Y/S254T/T256E in the IgG4 (S228P) Fc; also called 5F7-YTE
Kd [16]: 15.4 nM
koff [16]: 0.00277 s⁻¹
kon [16]: 180000 M⁻¹ s⁻¹
fold increase of binding affinity against 5F7-2a8-WT [17]: ~10 fold

Further lines, results first:

Kd [1]: 0.0205 nM
IC50, IL-36α induced IL-36R signaling (IL36R reporter assay, luciferase) [2]: 0.312 nM
koff [3]: 8.14e-07 s⁻¹
kon [4]: 39700 M⁻¹ s⁻¹
B1: 9A6 (antibody, V domains shown)
VH: QVQLQQSGPGLMAPSQSLSITCTVSGFSLTSYDVSWIRQSPGKGLEWLGVIWTGGGTDYNSAFMSRLSITKDNSKSQVFLKMSSLQTDDTAIYYCVRVYYDPYYAMDYWGQGTSVTVSS
VL: DIVLTQSPAIMSASPGEKVTMTCSASSSVSSRYLHWYQQKSGASPKLWIYGTSNLASGVPARFSGSGSGTSYSLTISSVEAEDAATYYCQQYHSDPLTFGAGTKLELK
notes: Mouse variable regions; also called chimeric antibody 9A6

IC50, inhibition of IL-36β induced IL-6 release in primary human epithelial keratinocytes (HEK cells) [panel IL-6] [6]: 0.0225 µg/mL
IC50, inhibition of IL-36β induced IL-8 release in primary human epithelial keratinocytes (HEK cells) [panel IL-8] [6]: 0.253 µg/mL
IC50, inhibition of IL-36β induced TNF-α release in primary human epithelial keratinocytes (HEK cells) [panel TNF-α] [6]: 0.0298 µg/mL
binding result [7]: no binding (tested: 1 µg/mL)
IC50, inhibition of IL-36α induced IL-8 release in A431 cells (IL-8 ELISA, OD450) [panel IL-36α] [8]: 2.29 µg/mL
IC50, inhibition of IL-36β induced IL-8 release in A431 cells (IL-8 ELISA, OD450) [panel IL-36β] [8]: 1.02 µg/mL
IC50, inhibition of IL-36γ induced IL-8 release in A431 cells (IL-8 ELISA, OD450) [panel IL-36γ] [8]: 0.0627 µg/mL
EC50 [9]: 0.0582 µg/mL
IC50, inhibition of IL-36α induced IL-8 release in primary human dermal fibroblast (HDF) cells (IL-8 ELISA, OD450) [10]: 0.0877 µg/mL
EC50 [11]: 0.0106 µg/mL
IC50, inhibition of IL-36α induced IL-6 release in primary human epithelial keratinocytes (HEK cells) [panel IL-6] [12]: 1.73 µg/mL
IC50, inhibition of IL-36α induced IL-8 release in primary human epithelial keratinocytes (HEK cells) [panel IL-8] [12]: 1.47 µg/mL
IC50, inhibition of IL-36α induced TNF-α release in primary human epithelial keratinocytes (HEK cells) [panel TNF-α] [12]: 0.353 µg/mL
IC50, IL-36R reporter assay: inhibition of ligand induced luminescence in Jurkat-IL36R-IL1Racp-NFkB-luc cells (printed REGN-14) [5]: 0.169 µg/mL
Kd [13]: 3.74 nM
koff [13]: 0.000283 s⁻¹
kon [13]: 75600 M⁻¹ s⁻¹
IC50, IL-36R reporter assay: inhibition of IL-36α induced luminescence in Jurkat-IL36R-IL1Racp-NFkB-luc cells (printed REGN-14) [14]: 0.0839 nM
IC50, inhibition of IL-36γ induced IL-6 release in primary human epithelial keratinocytes (HEK cells) [panel IL-6] [15]: 0.148 µg/mL
IC50, inhibition of IL-36γ induced IL-8 release in primary human epithelial keratinocytes (HEK cells) [panel IL-8] [15]: 0.114 µg/mL
IC50, inhibition of IL-36γ induced TNF-α release in primary human epithelial keratinocytes (HEK cells) [panel TNF-α] [15]: 0.0347 µg/mL
B3: REGN14 (antibody, V domains shown)
VH: EVQLVESGGDLVQPGRSLRLSCAASGFTFDDYAMHWVRQAPGKGLEWVSVISWNSDVIAYSDSVKGRFTISRDNAKNSLYLQMNSLRTEDTALYYCTKGHKWSFFDYWGQGTLVTVSS
VL: EIVLTQSPATLSLSPGERATLSCRASQSISSYLAWYQQKPGQAPRLLIFNVANRATDIPARFSGSGSGTDFTLTISSLEPEDFAVYYCQQRSNWPLTFGGGTKVEIK
notes: also called benchmark antibody

Kd [16]: 13.7 nM
koff [16]: 0.00398 s⁻¹
kon [16]: 290000 M⁻¹ s⁻¹
fold increase of binding affinity against 5F7-2a8-WT [17]: ~10 fold
B4: 5F7-2a8-QA (antibody, human IgG4 S228P, kappa)
heavy: B5 heavy with Y259M, T261S, E263T, T314Q, N441A
light: B5 light
notes: 5F7-2a8 with T307Q/N434A in the IgG4 (S228P) Fc; also called 5F7-QA
